Test results: patent US20240344241A1, “PROTEINACEOUS MOLECULES AND USES THEREFOR” (THE UNIVERSITY OF QUEENSLAND, priority 2021, published 2024)

T1: human β-factor XIIa (human), P00748
T1 chain 1: NGPLSCGQR
T1 chain 2: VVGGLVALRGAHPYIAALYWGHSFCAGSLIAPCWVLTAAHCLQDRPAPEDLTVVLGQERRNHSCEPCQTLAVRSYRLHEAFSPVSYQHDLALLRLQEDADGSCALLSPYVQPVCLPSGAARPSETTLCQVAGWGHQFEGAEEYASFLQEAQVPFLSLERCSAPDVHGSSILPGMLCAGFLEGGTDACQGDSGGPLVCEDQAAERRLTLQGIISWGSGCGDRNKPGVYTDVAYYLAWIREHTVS

T2: recombinant human matriptase (human), Q9Y5Y6
T2 chain: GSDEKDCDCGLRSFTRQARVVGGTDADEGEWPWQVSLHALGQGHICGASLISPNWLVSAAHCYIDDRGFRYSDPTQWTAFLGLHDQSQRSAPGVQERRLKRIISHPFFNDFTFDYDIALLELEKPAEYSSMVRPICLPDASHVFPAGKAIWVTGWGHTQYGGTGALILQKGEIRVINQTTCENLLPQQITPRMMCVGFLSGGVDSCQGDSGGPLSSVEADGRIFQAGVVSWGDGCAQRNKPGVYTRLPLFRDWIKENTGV

T3: human plasmin (human), P00747
T3 chain: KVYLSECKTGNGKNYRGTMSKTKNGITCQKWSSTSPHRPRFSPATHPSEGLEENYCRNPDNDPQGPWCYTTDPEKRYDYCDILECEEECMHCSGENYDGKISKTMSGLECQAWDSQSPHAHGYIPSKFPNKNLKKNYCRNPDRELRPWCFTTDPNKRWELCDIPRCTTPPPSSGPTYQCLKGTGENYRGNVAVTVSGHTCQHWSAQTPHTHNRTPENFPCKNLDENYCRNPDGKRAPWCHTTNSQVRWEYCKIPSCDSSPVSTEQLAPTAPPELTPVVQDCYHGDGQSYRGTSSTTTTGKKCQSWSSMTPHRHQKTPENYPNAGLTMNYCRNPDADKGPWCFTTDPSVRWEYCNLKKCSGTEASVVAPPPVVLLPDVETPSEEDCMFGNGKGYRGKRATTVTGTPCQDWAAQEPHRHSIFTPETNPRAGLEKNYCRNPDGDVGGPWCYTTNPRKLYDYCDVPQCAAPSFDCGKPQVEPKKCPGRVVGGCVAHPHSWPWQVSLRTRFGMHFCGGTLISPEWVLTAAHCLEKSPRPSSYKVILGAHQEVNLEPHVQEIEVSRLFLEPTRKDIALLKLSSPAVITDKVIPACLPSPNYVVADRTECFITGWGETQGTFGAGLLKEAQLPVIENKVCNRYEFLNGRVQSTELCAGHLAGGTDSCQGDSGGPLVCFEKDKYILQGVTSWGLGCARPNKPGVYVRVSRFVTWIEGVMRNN

B1: Cyclic MCoFx6 (peptide)
peptide: GGICPRFGRLCRRDSDCPGACICRATRFCGSGSD
modifications: not checked
B2: cMCoTI-fxL5 (peptide)
peptide: DGGVCPKILKKCRRDSDCPGACICRATRFCGSGS
modifications: not checked

Assays:
[1] = target: T1, human β-factor XIIa (human), P00748; test: competitive protease inhibition assay, 0.5 nM FXIIa, Boc-QGR-MCA substrate (unit as printed; probably pM)
[2] = target: T1, human β-factor XIIa (human), P00748; test: competitive protease inhibition assay, Ac-QRFR-pNA substrate, Morrison Ki
[3] = target: human cationic trypsin (human), P07477; test: competitive protease inhibition assay (selectivity panel), human trypsin, Boc-VPR-MCA
[4] = target: T2, recombinant human matriptase (human), …; test: competitive protease inhibition assay (selectivity panel), human matriptase, Boc-QAR-MCA
[5] = target: T3, human plasmin (human), P00747; test: competitive protease inhibition assay (selectivity panel), human plasmin, Ac-RM(O2)YR-pNA

| Binder | Ki [1] [nM] | Ki [2] [nM] | Ki [3] [nM] | Ki [4] [nM] | Ki [5] [nM] |
| --- | --- | --- | --- | --- | --- |
| B1 | 1.09 |  |  |  |  |
| B2 |  | 66 | 0.08 | 17 | 31 |
